Columns and labels:
Conditions in all cases: both partners purified
[1] = biological target: T1, STK4 (residues 1–487) K59R (human, UniProt Q13043 1-487, K59R); assay: ITC; MicroCal PEAQ-ITC, 25 °C; 20 mM Tris-HCl pH 7.5, 100 mM NaCl, 1 mM DTT; ~50 μM in the cell, ~500 μM in the syringe; one-site binding model
T1 construct: The tag could be cut by HRV 3C protease 'if desired'; also called kinase-dead full-length STK4; MST1; source: E. coli BL21 (DE3), purified (Ni-NTA, SEC)
T1 sequence (looked up): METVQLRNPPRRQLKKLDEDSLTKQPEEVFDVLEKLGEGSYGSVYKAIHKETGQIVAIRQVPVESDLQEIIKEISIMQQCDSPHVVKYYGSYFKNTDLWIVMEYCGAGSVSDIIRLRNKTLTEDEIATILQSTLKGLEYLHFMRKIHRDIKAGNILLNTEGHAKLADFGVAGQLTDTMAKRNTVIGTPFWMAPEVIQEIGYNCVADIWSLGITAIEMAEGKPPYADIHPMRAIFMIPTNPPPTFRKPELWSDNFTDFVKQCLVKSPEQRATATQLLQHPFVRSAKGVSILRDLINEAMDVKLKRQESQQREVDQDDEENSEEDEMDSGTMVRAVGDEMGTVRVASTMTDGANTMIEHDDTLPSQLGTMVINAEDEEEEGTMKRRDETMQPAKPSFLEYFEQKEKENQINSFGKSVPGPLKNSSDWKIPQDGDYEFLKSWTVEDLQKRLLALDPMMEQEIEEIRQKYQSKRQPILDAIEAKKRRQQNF

[2] = biological target: T2, STK4 (residues 11–326) K59R (human, UniProt Q13043 11-326, K59R); assay: as above
T2 construct: Monomer-dimer equilibrium in solution; dimer in the crystal; also called STK4 KD; source: E. coli BL21 (DE3), purified (Ni-NTA, SEC)
T2 sequence (looked up): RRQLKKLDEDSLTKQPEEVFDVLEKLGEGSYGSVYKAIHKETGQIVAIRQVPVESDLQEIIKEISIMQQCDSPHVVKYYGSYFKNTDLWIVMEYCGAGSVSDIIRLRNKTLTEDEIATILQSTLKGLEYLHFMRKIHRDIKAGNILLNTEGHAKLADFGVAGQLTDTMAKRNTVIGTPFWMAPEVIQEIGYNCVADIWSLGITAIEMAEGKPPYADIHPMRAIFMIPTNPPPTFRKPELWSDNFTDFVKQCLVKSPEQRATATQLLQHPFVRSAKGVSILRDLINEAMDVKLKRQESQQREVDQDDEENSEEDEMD

[3] = biological target: T3, STK4 (residues 1–326) K59R (human, UniProt Q13043 1-326, K59R); assay: SEC; each protein alone and the mixture at matched concentrations on Superdex 200 Increase 10/300 GL or Superdex 75 Increase 10/300 GL; a forward shift or increase of the peak read qualitatively; fractions on SDS-PAGE (Fig. 1c: 20 μM HOIP RING2-LDD, 30 μM STK4 KD, Superdex 75 Increase)
T3 construct: also called KD; source: E. coli BL21 (DE3), purified (Ni-NTA, SEC)
T3 sequence (looked up): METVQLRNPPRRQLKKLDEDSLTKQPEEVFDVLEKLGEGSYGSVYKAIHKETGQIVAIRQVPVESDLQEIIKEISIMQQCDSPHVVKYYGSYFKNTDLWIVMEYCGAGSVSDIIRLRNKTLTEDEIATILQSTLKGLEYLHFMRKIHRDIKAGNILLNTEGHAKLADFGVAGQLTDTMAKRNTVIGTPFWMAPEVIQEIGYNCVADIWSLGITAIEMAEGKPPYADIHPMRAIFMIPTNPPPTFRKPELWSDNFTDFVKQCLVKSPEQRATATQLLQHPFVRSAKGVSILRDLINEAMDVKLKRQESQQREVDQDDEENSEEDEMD

Measured: binding result

B1: HOIP (residues 854–1072) (domain or fragment, UniProt Q96EP0 854-1072, looked up)
chain: EYQAQGLAMYLQENGIDCPKCKFSYALARGGCMHFHCTQCRHQFCSGCYNAFYAKNKCPEPNCRVKKSLHGHHPRDCLFYLRDWTALRLQKLLQDNNVMFNTEPPAGARAVPGGGCRVIEQKEVPNGLRDEACGKETPAGYAGLCQAHYKEYLVSLINAHSLDPATLYEVEELETATERYLHVRPQPLAGEDPPAYQARLLQKLTEEVPLGQSIPRRRK
notes: also called HOIP RING2-LDD; source: E. coli BL21 (DE3), purified (glutathione resin, SEC)
binds: [1] | [2] | [3]
